Reference: US20220106400A1 (published 2022)

T1: human GITR on cells (human, UniProt Q9Y5U5 26-241)
T1 chain: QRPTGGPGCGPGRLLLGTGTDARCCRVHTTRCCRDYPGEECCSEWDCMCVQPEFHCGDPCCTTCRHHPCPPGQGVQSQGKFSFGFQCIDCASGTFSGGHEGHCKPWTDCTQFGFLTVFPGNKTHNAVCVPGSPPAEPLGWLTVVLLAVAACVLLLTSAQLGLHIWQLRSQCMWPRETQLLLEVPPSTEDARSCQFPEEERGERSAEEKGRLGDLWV

B1: anti-GITR-IgG2-IgG1.1 (antibody)
heavy: QVQLVESGGGVVQPGRSLRLSCAASGFTFSSYGMHWVRQAPGKGLEWVAVIWYEGSNKYYADSVKGRFTISRDNSKNTLYLQMNSLRAEDTAVYYCARGGSMVRGDYYYGMDVWGQGTTVTVSSASTKGPSVFPLAPCSRSTSESTAALGCLVKDYFPEPVTVSWNSGALTSGVHTFPAVLQSSGLYSLSSVVTVPSSNFGTQTYTCNVDHKPSNTKVDKTVERKCCVECPPCPAPPVAGPSVFLFPPKPKDTLMISRTPEVTCVVVDVSHEDPEVKFNWYVDGVEVHNAKTKPREEQYNSTYRVVSVLTVLHQDWLNGKEYKCKVSNKALPSSIEKTISKAKGQPREPQVYTLPPSREEMTKNQVSLTCLVKGFYPSDIAVEWESNGQPENNYKTTPPVLDSDGSFFLYSKLTVDKSRWQQGNVFSCSVMHEALHNHYTQKSLSLSPG
light: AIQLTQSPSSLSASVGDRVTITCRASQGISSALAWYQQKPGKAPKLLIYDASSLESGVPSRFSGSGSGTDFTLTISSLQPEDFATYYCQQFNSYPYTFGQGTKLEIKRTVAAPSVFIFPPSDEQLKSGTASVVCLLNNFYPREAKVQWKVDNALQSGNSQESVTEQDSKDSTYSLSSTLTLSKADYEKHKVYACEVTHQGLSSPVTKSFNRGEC
B2: anti-GITR-IgG2 (antibody)
heavy: QVQLVESGGGVVQPGRSLRLSCAASGFTFSSYGMHWVRQAPGKGLEWVAVIWYEGSNKYYADSVKGRFTISRDNSKNTLYLQMNSLRAEDTAVYYCARGGSMVRGDYYYGMDVWGQGTTVTVSSASTKGPSVFPLAPCSRSTSESTAALGCLVKDYFPEPVTVSWNSGALTSGVHTFPAVLQSSGLYSLSSVVTVPSSNFGTQTYTCNVDHKPSNTKVDKTVERKCCVECPPCPAPPVAGPSVFLFPPKPKDTLMISRTPEVTCVVVDVSHEDPEVQFNWYVDGVEVHNAKTKPREEQFNSTFRVVSVLTVVHQDWLNGKEYKCKVSNKGLPAPIEKTISKTKGQPREPQVYTLPPSREEMTKNQVSLTCLVKGFYPSDIAVEWESNGQPENNYKTTPPMLDSDGSFFLYSKLTVDKSRWQQGNVFSCSVMHEALHNHYTQKSLSLSPGK
light: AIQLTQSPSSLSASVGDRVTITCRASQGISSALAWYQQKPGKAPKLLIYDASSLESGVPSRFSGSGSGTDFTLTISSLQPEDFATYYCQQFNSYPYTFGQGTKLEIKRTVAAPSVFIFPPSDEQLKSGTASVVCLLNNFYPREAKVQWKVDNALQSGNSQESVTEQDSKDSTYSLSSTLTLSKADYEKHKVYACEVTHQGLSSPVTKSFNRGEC

Target: T1, human GITR on cells
Test: FACS binding to anti-CD3/CD28-activated human CD4 T cells

| Binder | EC50 [nM] |
| --- | --- |
| B1 | 0.163 |
| B2 | 0.277 |
